This assay concerns the target T1, HIS-AIF_(103-613) (human, UniProt O95831 103-613).
T1 construct: apoptosis-inducing factor (AIF, encoded by AIFM1), human, residues 103-613; also called apoptosis-inducing factor; source: E. coli BL21+DE3(RIPL), 0.5 mmol/L IPTG 3 h at 37 °C, purified
The assay can be described thus: AlphaScreen or HTRF; His-AIF_(103-613) (5 μL at 300 nmol/L) and GST-CHCHD4 (5 μL at 100 nmol/L, 2 h) coupled by their tags to donor and acceptor beads (5 μg/mL, 3 h at 23 °C in the dark); 384-well plates, 25 μL, 0.1% BSA/PBS; N27 at 3 μmol/L as positive control of inhibition. Particulars: both partners purified.

T1 sequence (O95831 103-613): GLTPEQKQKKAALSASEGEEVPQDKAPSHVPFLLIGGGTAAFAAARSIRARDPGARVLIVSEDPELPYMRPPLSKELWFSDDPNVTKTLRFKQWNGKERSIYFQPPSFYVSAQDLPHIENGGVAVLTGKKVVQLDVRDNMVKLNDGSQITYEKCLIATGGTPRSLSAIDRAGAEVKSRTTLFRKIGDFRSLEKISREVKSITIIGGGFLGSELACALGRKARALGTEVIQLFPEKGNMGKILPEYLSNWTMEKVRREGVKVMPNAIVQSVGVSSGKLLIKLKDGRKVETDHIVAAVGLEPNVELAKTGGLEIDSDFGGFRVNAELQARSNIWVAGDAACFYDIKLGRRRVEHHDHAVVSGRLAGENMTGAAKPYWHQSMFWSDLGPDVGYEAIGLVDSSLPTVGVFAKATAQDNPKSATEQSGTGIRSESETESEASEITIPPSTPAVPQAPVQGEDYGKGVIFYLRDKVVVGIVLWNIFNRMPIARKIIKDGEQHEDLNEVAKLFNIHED

B1: GST-CHCHD4 (natural protein, human, UniProt Q8N4Q1 1-142, looked up)
chain: MSYCRQEGKDRIIFVTKEDHETPSSAELVADDPNDPYEEHGLILPNGNINWNCPCLGGMASGPCGEQFKSAFSCFHYSTEEIKGSDCVDQFRAMQECMQKYPDLYPQEDEDEEEEREKKPAEQAEETAPIEATATKEEEGSS
notes: coiled-coil-helix-coiled-coil-helix domain-containing protein 4 (CHCHD4), human; it is printed both as GST-CHCHD4 and as CHCHD4-Gst; also called CHCHD4-Gst; coiled-coil-helix-coiled-coil-helix domain-containing protein 4; source: E. coli BL21+DE3(RIPL), 0.5 mmol/L IPTG 3 h at 37 °C, purified
On to B1, for which the binding result is listed as “binds”.

B2: peptide N27 (peptide, UniProt Q8N4Q1 1-27, looked up)
peptide: MSYCRQEGKDRIIFVTKEDHETPSSAE
notes: synthetic peptide corresponding to the N-terminal 27 amino acids of CHCHD4; source: synthetic peptide
With B2, the binding result was “binds”.
